What was measured:
[1] = target: Myc-tagged UNC5H2 (pMyc-UNC5H2) (human) (UniProt Q8IZJ1); experiment: cell-based or functional assay
[2] = target: somatostatin receptor 3 (pCMV6c-SSTR3); experiment: cell-based or functional assay

UniProt Q8IZJ1, sequence (Q8IZJ1 other isoform, or with tags, fused parts or gaps): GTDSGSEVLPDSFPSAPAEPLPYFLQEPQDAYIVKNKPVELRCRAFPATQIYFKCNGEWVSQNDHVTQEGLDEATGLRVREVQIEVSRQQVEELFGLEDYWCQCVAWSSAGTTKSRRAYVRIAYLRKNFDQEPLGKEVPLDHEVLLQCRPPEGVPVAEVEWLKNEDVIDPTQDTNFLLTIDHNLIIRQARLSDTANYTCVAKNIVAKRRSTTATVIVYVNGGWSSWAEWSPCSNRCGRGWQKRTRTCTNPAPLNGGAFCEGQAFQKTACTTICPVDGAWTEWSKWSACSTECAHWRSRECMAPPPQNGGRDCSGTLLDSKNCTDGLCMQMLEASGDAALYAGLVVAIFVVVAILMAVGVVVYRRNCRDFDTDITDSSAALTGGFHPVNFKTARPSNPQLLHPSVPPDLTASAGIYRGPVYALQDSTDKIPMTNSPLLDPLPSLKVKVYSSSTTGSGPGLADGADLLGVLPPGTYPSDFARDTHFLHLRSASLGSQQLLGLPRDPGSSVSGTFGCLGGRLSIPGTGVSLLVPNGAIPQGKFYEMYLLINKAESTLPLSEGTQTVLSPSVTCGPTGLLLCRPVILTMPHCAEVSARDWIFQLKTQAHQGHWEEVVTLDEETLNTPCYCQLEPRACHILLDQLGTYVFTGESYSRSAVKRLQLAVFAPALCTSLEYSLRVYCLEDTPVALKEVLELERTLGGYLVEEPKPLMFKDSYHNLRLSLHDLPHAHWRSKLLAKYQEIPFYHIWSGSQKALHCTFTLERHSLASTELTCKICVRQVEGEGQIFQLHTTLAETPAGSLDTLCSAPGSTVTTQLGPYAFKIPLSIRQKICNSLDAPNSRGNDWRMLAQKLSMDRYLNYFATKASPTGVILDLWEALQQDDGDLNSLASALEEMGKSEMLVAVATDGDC

Row | cAMP accumulation in transfected COS7 cells, Netrin 1 given before SST-14 [1] | decrease in cAMP accumulation in transfected COS7 cells [2] | Substance
1 | 41% |  | Netrin 1 (R&D Systems) (ligand)
2 |  | 32% | somatostatin-14 (from UniProt P61278 89-116) (peptide)

— patent US20060025335A1
